Series [1] addresses truncated extracellular domain of SIDT2 (SIDT2^ECD) (human). Put plainly: AUC; sedimentation velocity (SV-AUC) of the truncated ECDs in solution, no RNA.
Series [2] concerns the molecule itself. Put plainly: cryo-EM structure; single-particle cryo-EM of SIDT1 (3.33 Å) and SIDT2 (3.17 Å); homodimers with a two-fold axis.

One may read the stoichiometry N as the number of molecules, sites or subunits per partner or assembly. “truncated extracellular domain of SIDT2 (SIDT2^ECD) (domain or fragment)” displayed a stoichiometry N in series [1] of 2.

B1: human SIDT2, full-length (purified, used for cryo-EM and blue native gel) (natural protein, UniProt Q8NBJ9 19-832, looked up)
chain: HLGVLGPKNVSQKDAEFERTYVDEVNSELVNIYTFNHTVTRNRTEGVRVSVNVLNKQKGAPLLFVVRQKEAVVSFQVPLILRGMFQRKYLYQKVERTLCQPPTKNESEIQFFYVDVSTLSPVNTTYQLRVSRMDDFVLRTGEQFSFNTTAAQPQYFKYEFPEGVDSVIVKVTSNKAFPCSVISIQDVLCPVYDLDNNVAFIGMYQTMTKKAAITVQRKDFPSNSFYVVVVVKTEDQACGGSLPFYPFAEDEPVDQGHRQKTLSVLVSQAVTSEAYVSGMLFCLGIFLSFYLLTVLLACWENWRQKKKTLLVAIDRACPESGHPRVLADSFPGSSPYEGYNYGSFENVSGSTDGLVDSAGTGDLSYGYQGRSFEPVGTRPRVDSMSSVEEDDYDTLTDIDSDKNVIRTKQYLYVADLARKDKRVLRKKYQIYFWNIATIAVFYALPVVQLVITYQTVVNVTGNQDICYYNFLCAHPLGNLSAFNNILSNLGYILLGLLFLLIILQREINHNRALLRNDLCALECGIPKHFGLFYAMGTALMMEGLLSACYHVCPNYTNFQFDTSFMYMIAGLCMLKLYQKRHPDINASAYSAYACLAIVIFFSVLGVVFGKGNTAFWIVFSIIHIIATLLLSTQLYYMGRWKLDSGIFRRILHVLYTDCIRQCSGPLYVDRMVLLVMGNVINWSLAAYGLIMRPNDFASYLLAIGICNLLLYFAFYIIMKLRSGERIKLIPLLCIVCTSVVWGFALFFFFQGLSTWQKTPAESREHNRDCILLDFFDDHDIWHFLSSIAMFGSFLVLLTLDDDLDTVQRDKIYVF
modifications: N-glycosylation (six sites on the ECD resolved in the EM map); disulfide bonds
notes: SIDT2, human, full-length; Homodimer in the cryo-EM map; the self rows mean protomer with protomer; also called SID-1 transmembrane family member 2; source: cloned, expressed and purified
For the molecule B1, in series [2], the “stoichiometry N” value worked out at 2.

B2: human SIDT1, full-length (purified, used for cryo-EM and blue native gel) (natural protein, UniProt Q9NXL6 20-827, looked up)
chain: ASPGHPAKSPRQPPAPRRDPFDAARGADFDHVYSGVVNLSTENIYSFNYTSQPDQVTAVRVYVNSSSENLNYPVLVVVRQQKEVLSWQVPLLFQGLYQRSYNYQEVSRTLCPSEATNETGPLQQLIFVDVASMAPLGAQYKLLVTKLKHFQLRTNVAFHFTASPSQPQYFLYKFPKDVDSVIIKVVSEMAYPCSVVSVQNIMCPVYDLDHNVEFNGVYQSMTKKAAITLQKKDFPGEQFFVVFVIKPEDYACGGSFFIQEKENQTWNLQRKKNLEVTIVPSIKESVYVKSSLFSVFIFLSFYLGCLLVGFVHYLRFQRKSIDGSFGSNDGSGNMVASHPIAASTPEGSNYGTIDESSSSPGRQMSSSDGGPPGQSDTDSSVEESDFDTMPDIESDKNIIRTKMFLYLSDLSRKDRRIVSKKYKIYFWNIITIAVFYALPVIQLVITYQTVVNVTGNQDICYYNFLCAHPLGVLSAFNNILSNLGHVLLGFLFLLIVLRRDILHRRALEAKDIFAVEYGIPKHFGLFYAMGIALMMEGVLSACYHVCPNYSNFQFDTSFMYMIAGLCMLKLYQTRHPDINASAYSAYASFAVVIMVTVLGVVFGKNDVWFWVIFSAIHVLASLALSTQIYYMGRFKIDLGIFRRAAMVFYTDCIQQCSRPLYMDRMVLLVVGNLVNWSFALFGLIYRPRDFASYMLGIFICNLLLYLAFYIIMKLRSSEKVLPVPLFCIVATAVMWAAALYFFFQNLSSWEGTPAESREKNRECILLDFFDDHDIWHFLSATALFFSFLVLLTLDDDLDVVRRDQIPVF
modifications: N-glycosylation (three sites resolved in the EM map); disulfide bonds C130-C222 and C212-C271
notes: SIDT1, human, full-length; Homodimer in the cryo-EM map; the self rows mean protomer with protomer; also called SID-1 transmembrane family member 1; source: cloned, expressed and purified
For B2, the “stoichiometry N” value in series [2] stood at 2.
